Bridges are numbered along the chain shown (N, C = ends). Where no end group is shown, it is not given here. [ ]: non-standard residue; d: D form. Aib = CC(C)(N)C(=O)O
Columns and labels:
Assay in all cases: cell-based or functional assay
human GIP receptor = target: T1, human GIP receptor (human, UniProt P48546 22-466)
T1 sequence (looked up): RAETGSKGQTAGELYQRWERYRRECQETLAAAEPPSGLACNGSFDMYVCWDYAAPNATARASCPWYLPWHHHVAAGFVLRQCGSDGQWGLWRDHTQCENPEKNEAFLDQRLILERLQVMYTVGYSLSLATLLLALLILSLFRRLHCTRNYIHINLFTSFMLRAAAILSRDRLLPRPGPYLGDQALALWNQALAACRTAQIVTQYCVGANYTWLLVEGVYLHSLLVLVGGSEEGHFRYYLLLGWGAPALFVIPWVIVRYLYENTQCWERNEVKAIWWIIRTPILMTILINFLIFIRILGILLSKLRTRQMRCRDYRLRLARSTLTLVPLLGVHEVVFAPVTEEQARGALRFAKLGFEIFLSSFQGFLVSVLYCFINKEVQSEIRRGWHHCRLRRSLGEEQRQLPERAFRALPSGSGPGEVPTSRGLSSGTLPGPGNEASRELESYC

human glucagon receptor = human glucagon receptor (human, UniProt P47871 26-477)
human GLP-1 receptor = human GLP-1 receptor (human, UniProt P43220 24-463)

human glucagon receptor, sequence (P47871 26-477): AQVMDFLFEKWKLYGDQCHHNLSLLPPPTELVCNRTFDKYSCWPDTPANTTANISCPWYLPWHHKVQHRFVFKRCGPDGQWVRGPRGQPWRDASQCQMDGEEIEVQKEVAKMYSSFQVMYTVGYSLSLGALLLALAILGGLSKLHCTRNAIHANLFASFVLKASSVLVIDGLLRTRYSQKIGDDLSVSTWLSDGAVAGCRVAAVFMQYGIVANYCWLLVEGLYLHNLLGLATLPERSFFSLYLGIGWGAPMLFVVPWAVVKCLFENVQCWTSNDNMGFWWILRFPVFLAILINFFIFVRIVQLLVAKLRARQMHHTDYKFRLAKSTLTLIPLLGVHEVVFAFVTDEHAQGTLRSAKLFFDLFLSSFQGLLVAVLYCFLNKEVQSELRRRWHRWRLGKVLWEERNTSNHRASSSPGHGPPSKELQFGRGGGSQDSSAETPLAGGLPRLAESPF

Y[Aib]QGTFTSDYSIYLDEKAAKEFVQWLLDQHPSSGQPPPSC-NH2 (bridge 16-20) [triple agonist peptide of SEQ ID NO: 11]
In vitro activity relative to native peptide (%), vs. GIP (cAMP accumulation EC50, LANCE cAMP kit, CHO cells) (human GIP receptor): 33.7% | In vitro activity relative to native peptide (%), vs. Glucagon (cAMP accumulation EC50, LANCE cAMP kit, CHO cells) (human glucagon receptor): 10.2% | In vitro activity relative to native peptide (%), vs. GLP-1 (cAMP accumulation EC50, LANCE cAMP kit, CHO cells) (human GLP-1 receptor): 77.6%

Y[Aib]EGTFTSDYSIQLDKQAA[Aib]AFVQWLIAGGPSSGAPPPSK-NH2 [triple agonist peptide of SEQ ID NO: 12]
In vitro activity relative to native peptide (%), vs. GIP (cAMP accumulation EC50, LANCE cAMP kit, CHO cells) (human GIP receptor): 52.8% | In vitro activity relative to native peptide (%), vs. Glucagon (cAMP accumulation EC50, LANCE cAMP kit, CHO cells) (human glucagon receptor): 6.6% | In vitro activity relative to native peptide (%), vs. GLP-1 (cAMP accumulation EC50, LANCE cAMP kit, CHO cells) (human GLP-1 receptor): 87.2%

Y[Aib]QGTFTSDYSKYLDERASKDFVQWLLDHHPSSGQPPPSC-NH2 (bridge 16-20) [triple agonist peptide of SEQ ID NO: 10]
In vitro activity relative to native peptide (%), vs. GIP (cAMP accumulation EC50, LANCE cAMP kit, CHO cells) (human GIP receptor): 23.4% | In vitro activity relative to native peptide (%), vs. Glucagon (cAMP accumulation EC50, LANCE cAMP kit, CHO cells) (human glucagon receptor): 19% | In vitro activity relative to native peptide (%), vs. GLP-1 (cAMP accumulation EC50, LANCE cAMP kit, CHO cells) (human GLP-1 receptor): 65.3%

Y[Aib]QGTFTSDYSKYLDEQRAKEFVQWLLDHHPSSGQPPPSC-NH2 (bridge 16-20) [triple agonist peptide of SEQ ID NO: 1]
In vitro activity relative to native peptide (%), vs. GIP (cAMP accumulation EC50, LANCE cAMP kit, CHO cells) (human GIP receptor): 51.5% | In vitro activity relative to native peptide (%), vs. Glucagon (cAMP accumulation EC50, LANCE cAMP kit, CHO cells) (human glucagon receptor): 443% | In vitro activity relative to native peptide (%), vs. GLP-1 (cAMP accumulation EC50, LANCE cAMP kit, CHO cells) (human GLP-1 receptor): 16.6%

Y[Aib]QGTFTSDYSIYLDEQRAKEFIAWLLAHHPSSGQPPPSC-NH2 (bridge 16-20) [triple agonist peptide of SEQ ID NO: 4]
In vitro activity relative to native peptide (%), vs. GIP (cAMP accumulation EC50, LANCE cAMP kit, CHO cells) (human GIP receptor): 124% | In vitro activity relative to native peptide (%), vs. Glucagon (cAMP accumulation EC50, LANCE cAMP kit, CHO cells) (human glucagon receptor): 59.9% | In vitro activity relative to native peptide (%), vs. GLP-1 (cAMP accumulation EC50, LANCE cAMP kit, CHO cells) (human GLP-1 receptor): 11.2%

Y[Aib]QGTFTSDYSKYLDEKRAKEFVQWLLDQHPSSGQPPPSC-NH2 (bridge 16-20) [triple agonist peptide of SEQ ID NO: 5]
In vitro activity relative to native peptide (%), vs. GIP (cAMP accumulation EC50, LANCE cAMP kit, CHO cells) (human GIP receptor): 35.5% | In vitro activity relative to native peptide (%), vs. Glucagon (cAMP accumulation EC50, LANCE cAMP kit, CHO cells) (human glucagon receptor): 826% | In vitro activity relative to native peptide (%), vs. GLP-1 (cAMP accumulation EC50, LANCE cAMP kit, CHO cells) (human GLP-1 receptor): 49.1%

Y[Aib]QGTFTSDYSKYLDEQRAKEFIAWLLDHHPSSGQPPPSC-NH2 (bridge 16-20) [triple agonist peptide of SEQ ID NO: 3]
In vitro activity relative to native peptide (%), vs. GIP (cAMP accumulation EC50, LANCE cAMP kit, CHO cells) (human GIP receptor): 48.4% | In vitro activity relative to native peptide (%), vs. Glucagon (cAMP accumulation EC50, LANCE cAMP kit, CHO cells) (human glucagon receptor): 577% | In vitro activity relative to native peptide (%), vs. GLP-1 (cAMP accumulation EC50, LANCE cAMP kit, CHO cells) (human GLP-1 receptor): 17.4%

B1: triple agonist peptide of SEQ ID NO: 9 (peptide)
peptide: Y[Aib]EGTFTSDYSEYMEKEAVREFICWLVKGGPSSGAPPPS-NH2
modifications: bridge (positions not given here); not fully specified; also: ring formation between underlined and bold residues, places not given here
In vitro activity relative to native peptide (%), vs. GIP (cAMP accumulation EC50, LANCE cAMP kit, CHO cells) (human GIP receptor): 11.7% | In vitro activity relative to native peptide (%), vs. Glucagon (cAMP accumulation EC50, LANCE cAMP kit, CHO cells) (human glucagon receptor): 26.6% | In vitro activity relative to native peptide (%), vs. GLP-1 (cAMP accumulation EC50, LANCE cAMP kit, CHO cells) (human GLP-1 receptor): 37%

Y[Aib]QGTFTSDYSKYLDEQAAKEFVQWLLDHHPSSGQPPPSC-NH2 (bridge 16-20) [triple agonist peptide of SEQ ID NO: 2]
In vitro activity relative to native peptide (%), vs. GIP (cAMP accumulation EC50, LANCE cAMP kit, CHO cells) (human GIP receptor): 150% | In vitro activity relative to native peptide (%), vs. Glucagon (cAMP accumulation EC50, LANCE cAMP kit, CHO cells) (human glucagon receptor): 146% | In vitro activity relative to native peptide (%), vs. GLP-1 (cAMP accumulation EC50, LANCE cAMP kit, CHO cells) (human GLP-1 receptor): 91.4%

Y[Aib]QGTFTSDYSKALDEKAAKDFVQWLKDQHPSSGQPPPSC-NH2 (bridge 16-20) [triple agonist peptide of SEQ ID NO: 7]
In vitro activity relative to native peptide (%), vs. GIP (cAMP accumulation EC50, LANCE cAMP kit, CHO cells) (human GIP receptor): 33.9% | In vitro activity relative to native peptide (%), vs. Glucagon (cAMP accumulation EC50, LANCE cAMP kit, CHO cells) (human glucagon receptor): 3.62% | In vitro activity relative to native peptide (%), vs. GLP-1 (cAMP accumulation EC50, LANCE cAMP kit, CHO cells) (human GLP-1 receptor): 97.8%

Y[Aib]QGTFTSDYSKALDEKAAKDFVQWLLDQHPSSGQPPPSC-NH2 (bridge 16-20) [triple agonist peptide of SEQ ID NO: 6]
In vitro activity relative to native peptide (%), vs. GIP (cAMP accumulation EC50, LANCE cAMP kit, CHO cells) (human GIP receptor): 513% | In vitro activity relative to native peptide (%), vs. Glucagon (cAMP accumulation EC50, LANCE cAMP kit, CHO cells) (human glucagon receptor): 78.1% | In vitro activity relative to native peptide (%), vs. GLP-1 (cAMP accumulation EC50, LANCE cAMP kit, CHO cells) (human GLP-1 receptor): 89.5%

Y[Aib]QGTFTSDCSKYLDEKAAKEFVQWLLDHHPSSGQPPPS-NH2 (bridge 16-20) [triple agonist peptide of SEQ ID NO: 8]
In vitro activity relative to native peptide (%), vs. GIP (cAMP accumulation EC50, LANCE cAMP kit, CHO cells) (human GIP receptor): 6.19% | In vitro activity relative to native peptide (%), vs. Glucagon (cAMP accumulation EC50, LANCE cAMP kit, CHO cells) (human glucagon receptor): 5.52% | In vitro activity relative to native peptide (%), vs. GLP-1 (cAMP accumulation EC50, LANCE cAMP kit, CHO cells) (human GLP-1 receptor): 42.6%

Reference: patent US20230382974A1 (HANMI PHARM, published 2023)
